According to article PMC6776071 (2019):
Bridge positions count the residues as written; N and C are the ends.

Target: thrombin (bovine alpha-thrombin) (bovine)
Experiment: SPR

B1: mature hirudin-HN protein (Hir) (natural protein)
chain: NRYSVCTETGQNLCLCEGSDLCSLDNHCEIGSNGKNRCVKGEGKPKKPQSNSDLPEEKYEPIPIEDYDK
Kd: 0.0647 µM

B2: M-Hir (M-hirudin-HN-His tag) (natural protein)
chain: MNRYSVCTETGQNLCLCEGSDLCSLDNHCEIGSNGKNRCVKGEGKPKKPQSNSDLPEEKYEPIPIEDYDK
modifications: disulfide 7-15, 17-29, 23-39
Kd: 2.97 µM
